According to paper PMC5625035, “The Rev1 interacting region (RIR) motif in the scaffold protein XRCC1 mediates a low-affinity interaction with polynucleotide kinase/phosphatase (PNKP) during DNA single-strand break repair” (The Journal of Biological Chemistry, 2017):

B1: acrylodan-labeled PNKP (PNKP^WFX402-AC) (enzyme)
chain: not shown
modifications: acrylodan (6-acryloyl-2-dimethylaminonaphthalene, AC) label, site not stated
B2: His-XRCC1^161–406 (domain or fragment)
chain: PSQKVTVTKLGQFRVKEEDESANSLRPGALFFSRINKTSPVTASDPAGPSYAAATLQASSAASSASPVSRAIGSTSKPQESPKGKRKLDLNQEEKKTPSKPPAQLSPSVPKRPKLPAPTRTPATAPVPARAQGAVTGKPRGEGTEPRRPRAGPEELGKILQGVVVVLSGFQNPFRSELRDKALELGAKYRPDWTRDSTHLICAFANTPKYSQVLGLGGRIVRKEWVLDCHRMRRRLPSQRYLMAGP

Legend:
[1] = molecular target: T1, full-length XRCC1-His (recombinant, from E. coli) (human, UniProt P18887 1-633); experiment: other fluorescence titration; quenching of acrylodan fluorescence of PNKP-AC (excitation 380 nm, emission 485-490 nm) by added XRCC1 protein; 25 °C; PNKP-AC 20 nM with full-length XRCC1-His, 80 nM with His-XRCC1^161–406 and in the emission scans with His-XRCC1^FFF; nonlinear regression, unimodal binding; details: both partners purified
T1 construct: XRCC1, human, full length, not phosphorylated (made in E. coli); also called wild-type XRCC1; X-ray repair cross-complementing 1; source: E. coli (pET16b-XH), purified

[2] = molecular target: B1; experiment: as above; details: both partners purified

T1 sequence (P18887 whole entry): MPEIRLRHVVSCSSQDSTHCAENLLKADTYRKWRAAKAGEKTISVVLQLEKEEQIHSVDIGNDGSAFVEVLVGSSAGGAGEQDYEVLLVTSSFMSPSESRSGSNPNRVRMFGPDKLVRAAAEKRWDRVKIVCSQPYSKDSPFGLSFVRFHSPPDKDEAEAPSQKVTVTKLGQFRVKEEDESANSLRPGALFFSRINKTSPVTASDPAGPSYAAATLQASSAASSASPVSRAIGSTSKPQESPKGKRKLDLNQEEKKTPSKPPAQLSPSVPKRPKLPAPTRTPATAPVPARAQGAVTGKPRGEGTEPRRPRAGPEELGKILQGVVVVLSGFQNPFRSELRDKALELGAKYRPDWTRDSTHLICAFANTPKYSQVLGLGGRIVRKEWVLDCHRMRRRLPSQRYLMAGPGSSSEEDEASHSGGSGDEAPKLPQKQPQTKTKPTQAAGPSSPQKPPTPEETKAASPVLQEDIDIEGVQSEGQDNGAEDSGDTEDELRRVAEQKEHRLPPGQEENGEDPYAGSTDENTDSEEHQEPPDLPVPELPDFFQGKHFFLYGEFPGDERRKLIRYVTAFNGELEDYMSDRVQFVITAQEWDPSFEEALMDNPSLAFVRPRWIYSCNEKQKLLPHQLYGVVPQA

| Binder | Kd [1] [nM] | Kd [2] [nM] |
| --- | --- | --- |
| B1 | ~30 | – |
| B2 | – | ~95 |
